From patent publication US20230398116A1, “Agent for reversing resistance to anticancer drugs” (Y'S AC CO., LTD., priority 2020, published 2023)

How the values were obtained:
IL-26 [1] = molecular target: T1, IL-26 (Homo sapiens, UniProt Q9NPH9); experiment: MTT assay of HUVECs stimulated with IL-26 (neutralizing activity of IL-26); assay type: cell-based; set-up: purchased R&D Systems; host or cells: added exogenously to HUVECs; conditions: HUVECs, IL-26 10 ng/mL, 48 hours, MTT assay
T1 sequence (Q9NPH9 22-171): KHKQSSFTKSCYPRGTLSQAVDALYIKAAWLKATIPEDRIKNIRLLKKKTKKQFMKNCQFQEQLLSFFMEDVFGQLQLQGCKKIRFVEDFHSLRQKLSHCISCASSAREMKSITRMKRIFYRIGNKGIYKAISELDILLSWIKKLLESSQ
Procedure: Human and mouse breast cancer cells (1×10^4) were cultured in 10% FCS containing RPMI1640 medium on a 96-well flat bottom plate (Corning, Tewksbury, MA) at 37° C. for 24 hours, and then stimulated with IL-26 for 48 hours in the presence or absence of EGFR-TKI (gefitinib or erlotinib) at various concentrations, a signal inhibitor, and a neutralizing antibody. HUVECs were seeded in a 96-well flat bottom plate at 5×10^3 cells/well in a 2% FBS-containing EGM medium in which growth factors were reduced by half, and cultured at 37° C. for 12 hours. Thereafter, the medium was aspirated, and a recombinant human IL-26 dimer was adjusted to a final concentration of 10 ng/mL in a 2% FBS-containing EGM medium containing no growth factors, and added to the cells. The stimulation was started in the presence or absence of control human IgG and anti-human IL-26 antibodies, and the cells were cultured for 48 hours. Thereafter, a concentration of 20 μl or 1/10 of a 5 mg/ml MTT solution (Tetrazolium monosodium salt, WST-8) was added to each well, and the plate was allowed to stand for 1 hour. The absorbance at 450 nm/595 nm was measured using Microplate Reader (Bio-Rad, Hercules, CA) and data was analyzed with Microplate Manager 6 software (Bio-Rad).

IL-26 [2] = molecular target: T1, IL-26; experiment: ELISA of antigen binding to human IL-26; set-up: purchased R&D Systems 1375-IL/CF; conditions: plates coated with 0.5 μg/ml human IL-26 monomer; calculated using GraphPadPrism
Procedure: The antigen binding of purified Ch69-10-IgG1, Hu69-10A-IgG1, and Hu69-10B-IgG1 was analyzed by ELISA. ELISA plates were coated overnight at 4° C. with the addition of 0.5 μg/ml human IL-26 (recombinant human IL-26/AK155 monomer, Cat #1375-IL/CF, R&D Systems, Minneapolis, MN) at 100 μl/well in 0.2 M sodium carbonate buffer (pH 9.4). Wells were washed with the wash buffer and blocked with the ELISA buffer. Subsequently, 100 μl/well of test antibody (mouse 69-10, Ch69-10-IgG1, Hu69-10A-IgG1, or Hu69-10B-IgG1) serially diluted 2-fold in RPMI medium starting at 5 μg/ml was added to measure a binding with IL-26. After incubation at room temperature for 1 hour and washing the plates with a wash buffer, a 1/2,000-diluted HRP-conjugated goat anti-human kappa chain polyclonal antibody (Bethyl Laboratories) (for Ch69-10-IgG1, Hu69-10A-IgG1 and Hu69-10B-IgG1) or a 1/2,000-diluted HRP-labeled goat anti-mouse kappa chain polyclonal antibody (Bethyl Laboratories) (for mouse 69-10) in ELISA buffer was added at 100 μl/well to detect bound antibodies. After incubation at room temperature for 30 min and washing with the wash buffer, 100 μl/well of ABTS substrate (Sigma Aldrich) was added to start color development and 100 μl/well of 2% oxalic acid was added to stop the color development. The absorbance was measured at 405 nm.

IL-26 [3] = molecular target: T1, IL-26; experiment: ICAM-1 expression analysis of COLO205 (neutralizing activity of IL-26); assay type: cell-based; set-up: host or cells: added exogenously to COLO205 cells; conditions: COLO205, recombinant human IL-26 monomer 20 ng/mL, 24 hours, flow cytometry (MFI)
Procedure: COLO205 was seeded at 5×10^4 cells/well in a 96-well flat bottom plate, and stimulated with recombinant human IL-26 monomer (20 ng/mL) in the presence or absence of control human IgG or anti-human IL-26 antibody. After 24 hours of culture, the cells were collected and washed with ice-cold PBS (FCM buffer) containing 1% FBS and 0.1% sodium azide. Thereafter, a solution prepared by diluting a PE-labeled mouse anti-human ICAM-1 monoclonal antibody (clone 15.2, catalog number 50-0549-T100) of Bay bioscience (Kobe, Japan) or a PE-labeled mouse Igl,k isotype control monoclonal antibody (clone MOPC-21, catalogue number 400114) of BioLegend with FCM buffer to 5 μg/mL, was added at 50 μL/sample, and the mixture was allowed to stand at 4° C. for 25 minutes. Thereafter, the cells were washed with ice-cold FCM buffer, then measured with FACSCalibur, and the obtained data was analyzed with FlowJo.

[4] = tested on: phosphorylation of AKT, JNK and EphA3 in HCC70 cells; experiment: Western blotting of phosphorylation in HCC70 cells; assay type: cell-based, human; conditions: HCC70, IL-26 30 ng/ml or Ephrin A5 200 ng/ml, gefitinib 40 μM, FIG. 26
Procedure: To analyze the phosphorylation of AKT, ERK, p38, JNK, STAT3, and EphA3, E0771 cells and HCC70 cells in 100 mm dishes were stimulated with IL-26 ([…]) and an anti-EphA3 polyclonal antibody (pAb) (10 μg/ml) for a specified period of time. After stimulation, the cells were lysed with a 2% protease inhibitor mixture (Sigma-Aldrich) and/or RIPA buffer added with 1×PhosSTOP (Roche Diagnostics, Tokyo, Japan), and a lysate was separated in a reduced state by SDS-PAGE (15 μg/lane). Immunoblots were performed using an anti-phosphorylated AKT antibody, an anti-phosphorylated ERK antibody, an anti-phosphorylated p38 antibody, an anti-phosphorylated JNK antibody, an anti-phosphorylated STAT3 antibody, and an anti-phosphorylated EphA3 antibody that recognize both human and mouse antigens. For reprobing, the membrane was immersed in a stripping buffer. After the stripping procedure, the membranes were re-probed with anti-pan-AKT, anti-pan-ERK, anti-pan-p38, anti-pan-JNK, anti-pan-STAT3, and anti-pan-EphA3 antibodies recognizing both human and mouse antigens. Images were taken using a C-Digit Blot scanner (MS Techno Systems, Inc., Japan).

B1: 69-10: mouse anti-human IL-26 monoclonal antibody, clone 69-10, from deposited hybridoma (antibody, V domains shown)
VH: QVTLKESGPGILKPSQTLSLTCSFSGFSLSTSGMGVGWIRQPSGKGLEWLAHIWWDDDKYYNPSLKSQLTISKDTSRNQVFLKITSVDTADTATYYCVRGGITATHYYAMDYWGQGTSVTVSS
VL: DIQMTQSPASQSASLGESVTISCLASQTIGTWLSWYQQKPGKSPQLLIYAATSLADGVPSRFSGSGSGTKFSFKISSLQAEDFVSYYCQQLYSSPWTFGGGTKLEIK
- inhibitory effect of IL-26 (IL-26-promoted proliferation of HUVECs) (IL-26 [1]): not inferior to that of the commercially available goat anti-human IL-26 polyclonal antibody
- EC50 values (binding to human IL-26, ELISA) (IL-26 [2]): 0.34 µg/mL
- inhibition of IL-26-enhanced expression of ICAM-1 (IL-26 [3]): partially inhibited

B2: IL-26: recombinant human IL-26 dimers for cell stimulation, R&D Systems (protein)
chain: T1 sequence (Q9NPH9 22-171)
- dephosphorylation of EphA3, activation of AKT and JNK phosphorylation [4]: dephosphorylation of EphA3, activation of AKT and JNK phosphorylation
